Results: patent publication US20240270821A1, “GIP/GLP1/GCG TRI-RECEPTOR AGONISTS AND USES THEREOF” (priority 2023, published 2024)
Starred links: 1 amine or outer side, 2 acyl side, 3 side chain; linkers in the order of their positions; H or OH if unused. Non-standard residues stand in square brackets, D forms with d. Groups on a side chain read outwards from the residue. No end group written: not given here. *: point of attachment. C20 diacid = O=C(O)CCCCCCCCCCCCCCCCCCC(=O)*; Phe(4-CN) = N#Cc1ccc(C[C@H](N)C(=O)O)cc1; αMePhe(2-F) = C[C@](N)(Cc1ccccc1F)C(=O)O; γGlu = O=C(O)[C@H](CCC(=O)[*:2])N[*:1]; AEEA = NCCOCCOCC(=O)O; Aib = CC(C)(N)C(=O)O

How the values were obtained:
Experiment in all cases: cell-based or functional assay
hGLP-1R = hGLP-1R (Homo sapiens, UniProt P43220)
Chain of hGLP-1R (P43220 24-463): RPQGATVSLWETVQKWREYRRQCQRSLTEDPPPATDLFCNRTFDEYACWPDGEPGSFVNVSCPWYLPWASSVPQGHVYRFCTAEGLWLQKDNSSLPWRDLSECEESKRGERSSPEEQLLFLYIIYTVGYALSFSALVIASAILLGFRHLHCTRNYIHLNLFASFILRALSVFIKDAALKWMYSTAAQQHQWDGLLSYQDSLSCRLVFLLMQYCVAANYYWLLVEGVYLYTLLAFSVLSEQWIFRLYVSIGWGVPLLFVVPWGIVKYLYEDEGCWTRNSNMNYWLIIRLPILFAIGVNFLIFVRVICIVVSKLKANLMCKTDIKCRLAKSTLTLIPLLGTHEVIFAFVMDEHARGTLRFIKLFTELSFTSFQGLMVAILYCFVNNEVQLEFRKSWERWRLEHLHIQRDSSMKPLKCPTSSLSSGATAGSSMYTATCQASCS

[1] = molecular target: T1, human GIP receptor (human) (UniProt P48546)
T1 sequence (looked up): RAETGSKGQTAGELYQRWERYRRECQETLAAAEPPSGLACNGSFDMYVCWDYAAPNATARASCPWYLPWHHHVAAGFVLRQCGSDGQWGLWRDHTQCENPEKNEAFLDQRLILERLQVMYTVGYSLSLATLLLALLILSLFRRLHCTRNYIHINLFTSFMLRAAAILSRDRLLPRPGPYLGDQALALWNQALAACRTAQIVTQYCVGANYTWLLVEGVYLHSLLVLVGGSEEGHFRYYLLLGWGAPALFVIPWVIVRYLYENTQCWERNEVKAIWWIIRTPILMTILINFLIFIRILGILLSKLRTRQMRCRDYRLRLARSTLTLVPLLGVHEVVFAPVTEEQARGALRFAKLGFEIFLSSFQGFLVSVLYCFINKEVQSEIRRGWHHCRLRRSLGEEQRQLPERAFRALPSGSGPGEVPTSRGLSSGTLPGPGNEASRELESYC

[2] = molecular target: human glucagon receptor (human) (UniProt P47871)
Chain of human glucagon receptor (human) (P47871 26-477): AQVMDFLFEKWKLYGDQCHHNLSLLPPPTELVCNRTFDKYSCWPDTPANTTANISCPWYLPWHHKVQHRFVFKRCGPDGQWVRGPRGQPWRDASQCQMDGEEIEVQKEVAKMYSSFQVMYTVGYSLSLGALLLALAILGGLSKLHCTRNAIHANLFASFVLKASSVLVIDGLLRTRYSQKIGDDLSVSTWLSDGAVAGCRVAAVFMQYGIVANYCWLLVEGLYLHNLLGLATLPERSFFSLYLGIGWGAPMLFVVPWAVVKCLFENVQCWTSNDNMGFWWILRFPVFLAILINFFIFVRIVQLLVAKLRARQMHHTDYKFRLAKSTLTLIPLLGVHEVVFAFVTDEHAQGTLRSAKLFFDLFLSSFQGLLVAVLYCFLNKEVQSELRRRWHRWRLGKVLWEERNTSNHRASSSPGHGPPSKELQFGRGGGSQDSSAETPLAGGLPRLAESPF

Row | Binder | Relative cAMP EC50 (hGLP-1R) [nM] | cAMP Rel EC50, nM (1% HSA) (hGLP-1R) [nM] | Relative cAMP EC50 [1] [nM] | cAMP Rel EC50, nM (1% HSA) [1] [nM] | Relative cAMP EC50 [2] [nM] | cAMP Rel EC50, nM (1% HSA) [2] [nM] | cAMP Rel EC50 (in the presence of 1% HSA) (hGLP-1R) [nM] | cAMP Rel EC50 (in the presence of 1% HSA) [1] [nM] | cAMP Rel EC50 (in the presence of 1% HSA) [2] [nM]
1 | Y[Aib]QGT[αMePhe(2-F)]TSD[Phe(4-CN)]SILLDKQAQKAFIQYLLEGGPSSGEPPPSEG-NH2 (not fully specified (residue 20)) [Example 353] | 0.634 | 222 | 0.127 | 53.7 | 11 | 3080 | – | – | –
2 | Y[Aib]QGT[αMePhe(2-F)]TSDYSKILDKIAQKAFIQYLIEGGPSSGEPPPSEG-NH2 (not fully specified (residue 20)) [Example 354] | 1.21 | 175 | 0.134 | 23.8 | 7.91 | 1440 | – | – | –
3 | YXQGTFTSDFSKXLDKKAQXAFIEYLLEAGPSSGAPPPGEG (not fully specified; synthetic construct; SITE 2: note = 2-Aminoisobutyric Acid; SITE 13: note = alpha-methyl-leucine; SITE 17: note = Lysine is chemically modified through conjugation of the epsilon-amino group of the Lysine side chain with (2-[2-(2-Amino-ethoxy)-ethoxy]-acetyl)-(gamma-Glu)-CO-(CH2) 18-CO2H; SITE 20: n) [Example 34] | 1.16 | – | 0.122 | – | 3.47 | – | 242 | 44.2 | 855
4 | Y[Aib]QGT[αMePhe(2-F)]TSDYSKILDKIAQKAFIEYLIEGGPSSGAPPPSEG-NH2 (not fully specified (residue 20)) [Example 355] | 1.01 | 351 | 0.0811 | 33.2 | 5.87 | 3430 | – | – | –
5 | YXQGTXTSDYXIXLDXKAQXXFIEXLLEGGPSSGEPPPS (synthetic construct; SITE 2: note = 2-Aminoisobutyric Acid; SITE 6: note = alpha-methyl-2-fluoro-L-phenylalanine; SITE 11: note = alpha-methyl-L-serine; SITE 13: note = alpha-methyl-leucine; SITE 16: note = L-ornithine; SITE 17: note = Lysine is chemically modified through conjugation of the epsilon) [Example 368] | 0.242 | 37.4 | 0.0121 | 2.62 | 0.481 | 111 | – | – | –
6 | YXQGTXTSDXXIXLDXKAQXXFIEXLIEGGPSSGEPPPE (synthetic construct; SITE 2: note = 2-Aminoisobutyric Acid; SITE 6: note = alpha-methyl-2-fluoro-L-phenylalanine; SITE 10: note = 3-(4-Pyridyl)-L-alanine; SITE 11: note = alpha-methyl-L-serine; SITE 13: note = alpha-methyl-leucine; SITE 16: note = L-ornithine; SITE 17: note = Lysine is chemically mo) [Example 378] | 0.251 | 18.8 | 0.0213 | 2.15 | 1.45 | 176 | – | – | –
7 | YXQGTXTSDXXIXLDXKAQXXFIEXLIEGGPSSGEPPPS (synthetic construct; SITE 2: note = 2-Aminoisobutyric Acid; SITE 6: note = alpha-methyl-2-fluoro-L-phenylalanine; SITE 10: note = 3-(4-Pyridyl)-L-alanine; SITE 11: note = alpha-methyl-L-serine; SITE 13: note = alpha-methyl-leucine; SITE 16: note = L-ornithine; SITE 17: note = Lysine is chemically mo) [Example 375] | 0.299 | 18 | 0.0165 | 1.78 | 1.32 | 137 | – | – | –
8 | YXQGTXTSDXXIXLDXKAQXXFIEXLLEGGPSSXEPPPE (synthetic construct; SITE 2: note = 2-Aminoisobutyric Acid; SITE 6: note = alpha-methyl-2-fluoro-L-phenylalanine; SITE 10: note = 3-(4-Pyridyl)-L-alanine; SITE 11: note = alpha-methyl-L-serine; SITE 13: note = alpha-methyl-leucine; SITE 16: note = L-ornithine; SITE 17: note = Lysine is chemically mo) [Example 380] | 0.354 | 30.6 | 0.0346 | 7.77 | 1.17 | 150 | – | – | –
9 | HXQGTXTSDYXIXLDXKAQXAFIEYLLEGGPSSGEPPPE (synthetic construct; SITE 2: note = 2-Aminoisobutyric Acid; SITE 6: note = alpha-methyl-2-fluoro-L-phenylalanine; SITE 11: note = alpha-methyl-L-serine; SITE 13: note = alpha-methyl-leucine; SITE 16: note = L-ornithine; SITE 17: note = Lysine is chemically modified through conjugation of the epsilon) [Example 381] | 0.157 | 24.5 | 0.0156 | 7.01 | 1.39 | 176 | – | – | –
10 | YXQGTXTSDXXIXLDXKAQXXFIEXLLEGGPSSGEPPPE (synthetic construct; SITE 2: note = 2-Aminoisobutyric Acid; SITE 6: note = alpha-methyl-2-fluoro-L-phenylalanine; SITE 10: note = 3-(4-Pyridyl)-L-alanine; SITE 11: note = alpha-methyl-L-serine; SITE 13: note = alpha-methyl-leucine; SITE 16: note = L-ornithine; SITE 17: note = Lysine is chemically mo) [Example 377] | 0.367 | 29.4 | 0.0377 | 11.1 | 1.36 | 163 | – | – | –
11 | YXQGTXTSDXSIXLDXKAQXXFIEXLLEGGPSSXEPPPE (synthetic construct; SITE 2: note = 2-Aminoisobutyric Acid; SITE 6: note = alpha-methyl-2-fluoro-L-phenylalanine; SITE 10: note = 3-(4-Pyridyl)-L-alanine; SITE 13: note = alpha-methyl-leucine; SITE 16: note = L-ornithine; SITE 17: note = Lysine is chemically modified through conjugation of the epsil) [Example 373] | 0.392 | 54.5 | 0.0183 | 1.97 | 4.48 | 666 | – | – | –
12 | Y[Aib]QGT[αMePhe(2-F)]TSD[Phe(4-CN)]SILLDKQAQKAFIEYLLEGGPSSGEPPPSEG-NH2 (not fully specified (residue 20)) [Example 352] | 0.967 | 407 | 0.245 | 34.1 | 16.4 | 4020 | – | – | –
13 | Y[Aib]QGT[αMePhe(2-F)]TSD[Phe(4-CN)]SKLLDKIAQK([AEEA-γGlu-C20 diacid])AFIEYLIEGGPSSGAPPPSGS-NH2 [Example 363] | 1.47 | 217 | 0.375 | 91.8 | 13.6 | 4080 | – | – | –
14 | Y[Aib]QGT[αMePhe(2-F)]TSDYSKLLDKIAQKAFIEYLIEGGPSSGAPPPSGE-NH2 (not fully specified (residue 20)) [Example 356] | 0.599 | 206 | 0.0613 | 19.2 | 4.76 | 2680 | – | – | –
15 | Y[Aib]QGT[αMePhe(2-F)]TSD[Phe(4-CN)]SILLDKQAQKAFIEYLLEGGPSSGEPPPSAG-NH2 (not fully specified (residue 20)) [Example 350] | 0.776 | 360 | 0.106 | 33.6 | 10.4 | 3760 | – | – | –
16 | Y[Aib]QGT[αMePhe(2-F)]TSD[Phe(4-CN)]SKLLDKIAQK([AEEA-γGlu-C20 diacid])AFIEYLIEGGPSSGEPPPSGS-NH2 [Example 364] | 1.1 | 260 | 0.457 | 101 | 10.2 | 3190 | – | – | –
17 | YXQGTFTSDYXIXLDKKAQXAFIEYLIEGGPSSGAPPPS (synthetic construct; SITE 2: note = 2-Aminoisobutyric Acid; SITE 11: note = alpha-methyl-L-serine; SITE 13: note = alpha-methyl-leucine; SITE 17: note = Lysine is chemically modified through conjugation of the epsilon-amino group of the Lysine side chain with (2-[2-(2-Amino-ethoxy)-ethoxy]-acetyl)2-) [Example 382] | 0.291 | 61.5 | 0.0368 | 17.7 | 3.72 | 1050 | – | – | –
18 | YXQGTXTSDYSIXLDKKAAXAFIEYLIETGPSSGAPPPSEG (synthetic construct; SITE 2: note = 2-Aminoisobutyric Acid; SITE 6: note = alpha-methyl-2-fluoro-L-phenylalanine; SITE 13: note = alpha-methyl-leucine; SITE 17: note = Lysine is chemically modified through conjugation of the epsilon-amino group of the Lysine side chain with (2-[2-(2-Amino-ethoxy)-et)) [Example 383] | 0.258 | 79.1 | 0.0406 | 32.3 | 1.27 | 530 | – | – | –
19 | Y[Aib]QGT[αMePhe(2-F)]TSDYSILLDAQAAKEFIEYLIEGGPSSGEPPPSEG-NH2 (not fully specified (residue 20)) [Example 351] | 0.679 | 272 | 0.243 | 57.5 | 12.1 | 2470 | – | – | –
20 | Y[Aib]QGT[αMePhe(2-F)]TSDYSKLLDKIAQKAFIEYLIEGGPSSGAPPPEGE-NH2 (not fully specified (residue 20)) [Example 357] | 0.625 | 248 | 0.077 | 42.9 | 6.21 | 1810 | – | – | –
